Test results reported in the supplement of paper PMC10065799, “High-throughput profiling of sequence recognition by tyrosine kinases and SH2 domains using bacterial peptide display” (eLife, 2023).

Experiments:
Fes = Fes (UniProt P07332); experiment: phosphorylation enrichment, bacterial display (enrichment ratio); higher = better substrate or ligand; peptides without Tyr show the background
MERTK = MERTK (UniProt Q12866); experiment: as above
c-Abl (mouse) = experiment: as above
Fyn = Fyn (UniProt P06241); experiment: as above
Hck = Hck (UniProt P08631); experiment: as above
c-Src = experiment: as above
EPHB1 = EPHB1 (UniProt P54762); experiment: as above
FGFR1 = FGFR1 (UniProt P11362); experiment: as above
EPHB2 = EPHB2 (UniProt P29323); experiment: as above
Fer (mouse) = experiment: as above
AncSZ = experiment: as above
Jak2 = Jak2 (UniProt O60674); experiment: as above
FGFR3 = FGFR3 (UniProt P22607); experiment: as above
Grb2 SH2 = Grb2 SH2 (UniProt P62993); experiment: SH2 binding enrichment of the phosphorylated peptide, bacterial display (enrichment ratio); higher = better substrate or ligand; peptides without Tyr show the background
SHP2-C SH2 = experiment: as above
c-Src SH2 = experiment: as above
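Throughout, for SH2 binding enrichment of the phosphorylated peptide, bacterial display: peptide library displayed on the E. coli surface as eCPX fusions, selected cells deep-sequenced, score is each peptide's frequency after selection divided by its frequency in the input.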
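Throughout, for phosphorylation enrichment, bacterial display: 11-residue human phosphosite peptides and single-mutation variants displayed on the E. coli surface, counted by deep sequencing, each peptide's frequency after selection divided by its frequency in the unselected input library; frequency after pTyr selection over input frequency; kinase dosed for 20-30% of maximal phosphorylation in three min.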

Sequence of Fes (P07332 whole entry, looked up): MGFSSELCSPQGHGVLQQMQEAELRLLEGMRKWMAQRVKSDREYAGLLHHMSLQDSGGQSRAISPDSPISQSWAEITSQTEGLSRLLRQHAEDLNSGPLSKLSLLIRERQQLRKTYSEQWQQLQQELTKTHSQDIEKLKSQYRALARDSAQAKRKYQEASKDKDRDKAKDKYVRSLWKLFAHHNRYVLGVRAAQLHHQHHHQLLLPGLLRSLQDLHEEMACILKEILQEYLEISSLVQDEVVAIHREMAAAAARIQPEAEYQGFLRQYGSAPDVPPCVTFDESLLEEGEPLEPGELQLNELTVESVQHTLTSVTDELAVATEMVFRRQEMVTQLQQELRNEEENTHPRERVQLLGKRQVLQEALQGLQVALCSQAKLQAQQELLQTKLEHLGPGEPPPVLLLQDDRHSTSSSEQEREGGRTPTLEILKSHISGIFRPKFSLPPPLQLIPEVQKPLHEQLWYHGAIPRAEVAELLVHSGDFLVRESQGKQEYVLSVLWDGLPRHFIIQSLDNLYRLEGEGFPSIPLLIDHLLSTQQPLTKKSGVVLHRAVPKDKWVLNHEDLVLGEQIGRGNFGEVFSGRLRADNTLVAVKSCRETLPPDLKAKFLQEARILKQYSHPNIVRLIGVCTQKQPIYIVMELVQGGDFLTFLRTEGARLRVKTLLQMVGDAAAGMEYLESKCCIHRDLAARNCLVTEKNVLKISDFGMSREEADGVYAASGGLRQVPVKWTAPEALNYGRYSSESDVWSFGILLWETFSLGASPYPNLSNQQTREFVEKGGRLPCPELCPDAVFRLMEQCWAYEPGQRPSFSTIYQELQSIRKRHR
Sequence of Hck (P08631 whole entry, looked up): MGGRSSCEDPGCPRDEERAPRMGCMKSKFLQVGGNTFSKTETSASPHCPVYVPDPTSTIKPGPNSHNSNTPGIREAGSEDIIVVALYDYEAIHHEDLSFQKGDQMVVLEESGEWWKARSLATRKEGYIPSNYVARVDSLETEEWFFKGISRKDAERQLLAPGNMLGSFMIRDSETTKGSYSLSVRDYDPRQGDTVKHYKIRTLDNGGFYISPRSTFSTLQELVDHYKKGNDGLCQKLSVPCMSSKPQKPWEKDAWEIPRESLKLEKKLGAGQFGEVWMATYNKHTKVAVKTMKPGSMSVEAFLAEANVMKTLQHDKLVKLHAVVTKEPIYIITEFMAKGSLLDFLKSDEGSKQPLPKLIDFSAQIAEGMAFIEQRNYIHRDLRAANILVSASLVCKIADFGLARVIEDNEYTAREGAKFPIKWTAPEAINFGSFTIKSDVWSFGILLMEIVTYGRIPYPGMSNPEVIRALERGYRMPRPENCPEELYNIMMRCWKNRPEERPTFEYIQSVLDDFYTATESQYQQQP
Sequence of FGFR3 (P22607 whole entry, looked up): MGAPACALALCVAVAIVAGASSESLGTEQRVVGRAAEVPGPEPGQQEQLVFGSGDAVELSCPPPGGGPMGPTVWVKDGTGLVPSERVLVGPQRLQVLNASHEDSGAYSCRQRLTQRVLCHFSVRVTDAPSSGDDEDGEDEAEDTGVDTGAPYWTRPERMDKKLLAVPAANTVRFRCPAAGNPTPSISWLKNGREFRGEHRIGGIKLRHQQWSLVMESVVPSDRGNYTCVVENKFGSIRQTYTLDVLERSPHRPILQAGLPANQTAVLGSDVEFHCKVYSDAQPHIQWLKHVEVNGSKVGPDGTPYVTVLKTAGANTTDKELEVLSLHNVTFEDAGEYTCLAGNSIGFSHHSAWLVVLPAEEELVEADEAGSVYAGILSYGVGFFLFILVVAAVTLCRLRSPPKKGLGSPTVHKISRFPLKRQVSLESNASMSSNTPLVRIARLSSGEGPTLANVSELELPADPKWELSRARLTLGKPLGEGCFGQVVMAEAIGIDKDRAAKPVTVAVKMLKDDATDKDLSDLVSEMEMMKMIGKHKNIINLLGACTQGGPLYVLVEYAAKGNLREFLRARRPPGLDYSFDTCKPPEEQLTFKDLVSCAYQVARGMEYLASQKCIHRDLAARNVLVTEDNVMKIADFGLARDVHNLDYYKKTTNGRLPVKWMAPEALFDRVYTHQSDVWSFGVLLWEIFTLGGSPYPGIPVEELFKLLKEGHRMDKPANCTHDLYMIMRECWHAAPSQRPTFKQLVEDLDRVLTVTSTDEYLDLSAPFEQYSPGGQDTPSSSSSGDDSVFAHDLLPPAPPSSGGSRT
Sequence of FGFR1 (P11362 whole entry, looked up): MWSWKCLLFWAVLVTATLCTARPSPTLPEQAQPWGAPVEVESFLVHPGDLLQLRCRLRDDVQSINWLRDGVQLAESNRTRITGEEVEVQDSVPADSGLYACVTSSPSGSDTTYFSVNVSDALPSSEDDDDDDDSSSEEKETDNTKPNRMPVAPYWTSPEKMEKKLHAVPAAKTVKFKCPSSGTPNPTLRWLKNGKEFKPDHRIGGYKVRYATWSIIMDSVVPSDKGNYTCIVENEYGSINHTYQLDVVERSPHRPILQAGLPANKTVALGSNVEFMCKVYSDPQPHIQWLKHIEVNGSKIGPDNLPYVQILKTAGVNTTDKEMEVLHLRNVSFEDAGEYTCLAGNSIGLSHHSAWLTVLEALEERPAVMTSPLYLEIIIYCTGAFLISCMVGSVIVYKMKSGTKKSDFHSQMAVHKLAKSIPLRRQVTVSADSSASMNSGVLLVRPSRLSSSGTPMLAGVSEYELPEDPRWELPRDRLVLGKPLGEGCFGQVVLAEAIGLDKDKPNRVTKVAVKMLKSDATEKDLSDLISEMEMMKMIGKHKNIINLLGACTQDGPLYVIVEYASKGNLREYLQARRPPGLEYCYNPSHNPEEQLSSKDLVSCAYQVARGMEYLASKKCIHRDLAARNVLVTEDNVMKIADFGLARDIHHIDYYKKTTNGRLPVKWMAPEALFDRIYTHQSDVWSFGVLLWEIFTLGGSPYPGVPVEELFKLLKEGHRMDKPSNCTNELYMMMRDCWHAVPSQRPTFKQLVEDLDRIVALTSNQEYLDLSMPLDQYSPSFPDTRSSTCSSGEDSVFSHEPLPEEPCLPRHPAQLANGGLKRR
Sequence of Jak2 (O60674 whole entry, looked up): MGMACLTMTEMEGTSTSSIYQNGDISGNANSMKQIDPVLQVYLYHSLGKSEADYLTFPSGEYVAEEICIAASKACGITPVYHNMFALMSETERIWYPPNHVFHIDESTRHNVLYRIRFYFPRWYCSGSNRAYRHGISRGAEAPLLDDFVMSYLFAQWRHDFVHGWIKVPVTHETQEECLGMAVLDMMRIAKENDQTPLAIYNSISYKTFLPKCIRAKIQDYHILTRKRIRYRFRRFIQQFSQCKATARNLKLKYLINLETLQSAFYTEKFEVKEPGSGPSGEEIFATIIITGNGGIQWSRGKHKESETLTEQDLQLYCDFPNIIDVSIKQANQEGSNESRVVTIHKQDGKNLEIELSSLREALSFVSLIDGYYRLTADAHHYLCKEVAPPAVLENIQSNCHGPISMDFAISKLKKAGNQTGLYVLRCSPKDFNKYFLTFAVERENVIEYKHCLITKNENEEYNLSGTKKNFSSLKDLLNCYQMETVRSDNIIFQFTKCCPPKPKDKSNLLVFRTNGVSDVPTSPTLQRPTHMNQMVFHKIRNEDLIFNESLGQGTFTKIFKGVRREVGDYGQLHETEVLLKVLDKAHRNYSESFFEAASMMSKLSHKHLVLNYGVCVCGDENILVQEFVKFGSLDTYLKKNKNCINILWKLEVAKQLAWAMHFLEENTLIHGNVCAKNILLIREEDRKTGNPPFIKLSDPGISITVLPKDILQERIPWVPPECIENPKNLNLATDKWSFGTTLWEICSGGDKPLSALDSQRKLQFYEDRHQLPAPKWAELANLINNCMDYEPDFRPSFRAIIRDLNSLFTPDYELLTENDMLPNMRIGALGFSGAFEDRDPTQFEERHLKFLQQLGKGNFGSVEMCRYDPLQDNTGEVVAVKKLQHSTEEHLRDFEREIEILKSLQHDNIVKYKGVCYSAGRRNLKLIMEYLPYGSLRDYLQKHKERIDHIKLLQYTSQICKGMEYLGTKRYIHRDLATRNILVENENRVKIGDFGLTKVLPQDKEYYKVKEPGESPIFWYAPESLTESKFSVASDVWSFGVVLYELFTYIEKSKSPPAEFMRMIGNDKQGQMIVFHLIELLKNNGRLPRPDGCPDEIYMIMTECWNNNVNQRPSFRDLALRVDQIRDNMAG
Sequence of Fyn (P06241 whole entry, looked up): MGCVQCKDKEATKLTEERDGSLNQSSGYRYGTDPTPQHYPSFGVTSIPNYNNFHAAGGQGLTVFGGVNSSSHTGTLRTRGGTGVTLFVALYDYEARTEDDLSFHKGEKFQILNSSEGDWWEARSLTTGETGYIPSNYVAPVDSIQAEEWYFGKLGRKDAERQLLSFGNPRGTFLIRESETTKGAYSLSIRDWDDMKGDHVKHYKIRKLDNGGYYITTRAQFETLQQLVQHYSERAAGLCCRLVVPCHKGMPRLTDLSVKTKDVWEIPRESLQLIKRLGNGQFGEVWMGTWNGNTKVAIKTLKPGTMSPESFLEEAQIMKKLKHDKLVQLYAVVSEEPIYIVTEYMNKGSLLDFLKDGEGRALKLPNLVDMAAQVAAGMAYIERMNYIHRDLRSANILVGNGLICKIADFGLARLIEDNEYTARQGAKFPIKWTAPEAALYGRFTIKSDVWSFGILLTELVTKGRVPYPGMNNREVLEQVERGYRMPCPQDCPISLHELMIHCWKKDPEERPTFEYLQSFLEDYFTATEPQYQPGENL
Sequence of Grb2 SH2 (P62993 whole entry, looked up): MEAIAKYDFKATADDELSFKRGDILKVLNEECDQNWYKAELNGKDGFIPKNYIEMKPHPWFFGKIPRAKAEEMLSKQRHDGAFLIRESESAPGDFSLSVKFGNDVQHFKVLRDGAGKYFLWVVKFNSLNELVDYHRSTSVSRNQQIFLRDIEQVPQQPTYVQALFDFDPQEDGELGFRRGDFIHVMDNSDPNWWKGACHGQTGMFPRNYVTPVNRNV

| Sequence | phosphorylation enrichment (Fes) | phosphorylation enrichment (MERTK) | phosphorylation enrichment (c-Abl (mouse)) | phosphorylation enrichment (Fyn) | phosphorylation enrichment (Hck) | phosphorylation enrichment (c-Src) | phosphorylation enrichment (EPHB1) | phosphorylation enrichment (FGFR1) | phosphorylation enrichment (EPHB2) | phosphorylation enrichment (Fer (mouse)) | phosphorylation enrichment (AncSZ) | phosphorylation enrichment (Jak2) | phosphorylation enrichment (FGFR3) | SH2 binding enrichment (Grb2 SH2) | SH2 binding enrichment (SHP2-C SH2) | SH2 binding enrichment (c-Src SH2) |
| --- | --- | --- | --- | --- | --- | --- | --- | --- | --- | --- | --- | --- | --- | --- | --- | --- |
| ARRHPYFYAPE [ALB_Y172] | 0.766 | 0.893 | 0.605 | 0.641 | 0.575 | 0.972 | 0.488 | 1.87 | 0.553 | 0.58 | 0.883 | 0.8 | 1.08 | 0.61 | 0.47 | 0.3 |
| NRLTDYYELLL [BBS10_Y536_P539L] | 1.17 | 3.04 | 1.15 | 1.1 | 1.46 | 1.69 | 2.44 | 11.9 | 1.66 | 1.98 | 1.64 | 1.68 | 10.1 | 1.19 | 0.83 | 1.16 |
| VTPVMYTYDEY [COL10A1_Y623_G618V] | 1.05 | 0.912 | 0.568 | 1.61 | 0.932 | 2.22 | 0.633 | 0.637 | 0.798 | 0.542 | 1.15 | 0.917 | 0.795 | 1.05 | 0.685 | 2.44 |
| RILENYGADID [DNAH5_Y596_L591R] | 1.06 | 0.51 | 0.951 | 0.726 | 0.494 | 0.56 | 0.717 | 0.765 | 0.719 | 0.403 | 1.17 | 1.14 | 0.695 | 0.525 | 0.474 | 0.802 |
| ASELGYQFQAI [UROD_Y133_V134Q] | 0.92 | 0.387 | 0.596 | 0.407 | 0.468 | 0.46 | 0.362 | 0.525 | 0.5 | 0.493 | 0.77 | 0.679 | 0.59 | 0.795 | 0.652 | 0.826 |
| RLNCIYFKDQT [RS1_Y165_W163C_YF] | 1.32 | 0.871 | 1.05 | 0.59 | 0.77 | 1.08 | 0.827 | 0.683 | 0.732 | 0.56 | 1.16 | 1.3 | 0.599 | 1.05 | 0.818 | 0.711 |
| LKYAIYFEVRE [LAMA2_Y1258_A1261V] | 2.57 | 0.954 | 2.14 | 1.17 | 0.827 | 1.45 | 1.67 | 1.09 | 1.23 | 0.929 | 2.08 | 2.44 | 1.39 | 0.399 | 0.573 | 0.544 |
| PRQRRYVFFFS [PTEN_Y174_S170R_YF] | 0.605 | 0.574 | 0.385 | 0.575 | 0.446 | 0.597 | 0.606 | 0.62 | 0.343 | 0.555 | 0.739 | 0.262 | 0.715 | 0.861 | 0.453 | 0.453 |
| EPSLVYMVTKI [CPS1_Y768_D767V] | 1.16 | 0.454 | 0.89 | 0.808 | 1.26 | 1.45 | 0.575 | 0.543 | 0.534 | 1.7 | 1.16 | 1.04 | 0.741 | 0.769 | 0.531 | 0.482 |
| ATHRSYDSDNP [MMUT_Y146_G145S] | 0.777 | 0.57 | 0.518 | 0.47 | 0.476 | 0.447 | 0.346 | 0.593 | 0.459 | 0.422 | 1.13 | 0.543 | 0.511 | 1.07 | 0.509 | 0.651 |
| ISHVAYLVLGK [TRRAP_Y892_R893L] | 1.07 | 0.53 | 0.588 | 0.507 | 0.485 | 0.454 | 0.805 | 0.535 | 0.5 | 0.505 | 0.95 | 0.996 | 0.75 | 1.47 | 3.41 | 1.1 |
| SSWPDYVRPLP [HSPB1_Y54_G53D] | 0.93 | 0.437 | 0.808 | 0.442 | 0.511 | 0.475 | 1.57 | 2.49 | 0.599 | 0.54 | 4.98 | 7.67 | 1.6 | 0.974 | 0.71 | 0.489 |
| SPDMLYQYLKQ [RPAP3_Y567] | 0.692 | 7.39 | 0.856 | 1.18 | 8.16 | 1.96 | 3.35 | 3.36 | 1.78 | 11.6 | 1.09 | 0.727 | 2.04 | 1.21 | 0.659 | 0.68 |
| MDDPRYGMCPL [ZNF100_Y6] | 1.38 | 0.56 | 1.01 | 0.721 | 0.56 | 0.685 | 0.687 | 0.538 | 0.675 | 0.607 | 1.16 | 1.27 | 0.838 | 0.632 | 0.506 | 0.522 |
| DFRTTYVNANE [KCNH2_Y475_N470D] | 0.781 | 0.415 | 0.405 | 0.491 | 0.44 | 0.378 | 0.366 | 0.414 | 0.512 | 0.38 | 0.732 | 0.649 | 0.596 | 23.1 | 2.23 | 2.81 |
| KLQKKYGPIYS [CYP17A1_Y60] | 0.468 | 0.422 | 0.451 | 1.59 | 2.26 | 1.17 | 0.361 | 0.318 | 0.351 | 0.39 | 0.433 | 0.378 | 0.438 | 1.01 | 0.819 | 0.588 |
| SHEELYKWFTS [DYNC1H1_Y3051] | 1.21 | 4.28 | 1.33 | 0.918 | 1.25 | 1.55 | 0.608 | 5.57 | 0.577 | 3.4 | 1.28 | 1.05 | 3.6 | 0.887 | 0.837 | 0.562 |

| Sequence | phosphorylation enrichment (Fes) | phosphorylation enrichment (MERTK) | phosphorylation enrichment (c-Abl (mouse)) | phosphorylation enrichment (Fyn) | phosphorylation enrichment (Hck) | phosphorylation enrichment (c-Src) | phosphorylation enrichment (EPHB1) | phosphorylation enrichment (FGFR1) | phosphorylation enrichment (EPHB2) | phosphorylation enrichment (Fer (mouse)) | phosphorylation enrichment (AncSZ) | phosphorylation enrichment (Jak2) | phosphorylation enrichment (FGFR3) | SH2 binding enrichment (Grb2 SH2) | SH2 binding enrichment (SHP2-C SH2) | SH2 binding enrichment (c-Src SH2) |
| --- | --- | --- | --- | --- | --- | --- | --- | --- | --- | --- | --- | --- | --- | --- | --- | --- |
| YSNKLYYQLEQ [PDPR_Y109] | 1.09 | 6.24 | 0.82 | 2.08 | 2.27 | 3.28 | 3.14 | 8.28 | 2.11 | 0.81 | 1.43 | 1.76 | 7.22 | 0.826 | 0.957 | 1.12 |
| GTATAYLCGVK [ALPL_Y117] | 1.07 | 0.352 | 0.667 | 0.472 | 0.501 | 0.427 | 0.512 | 0.485 | 0.507 | 0.463 | 0.756 | 0.89 | 0.595 | 0.763 | 0.695 | 0.432 |
| IINENYDFLKV [NUP98_Y1664_G1669V_YF] | 1.01 | 0.838 | 0.668 | 0.512 | 2.17 | 0.655 | 0.794 | 0.862 | 0.92 | 2.45 | 1.05 | 0.97 | 0.779 | 0.588 | 0.958 | 0.588 |
| IRKDLYSNNVL [ACTC1_Y296_A297S] | 0.553 | 0.518 | 0.444 | 0.415 | 0.419 | 0.322 | 0.497 | 0.425 | 0.476 | 0.414 | 0.506 | 0.471 | 0.422 | 0.836 | 0.835 | 0.611 |
| YGAHKYHPLPV [OAT_Y55_N54K] | 0.892 | 0.442 | 0.498 | 0.611 | 0.787 | 0.562 | 0.371 | 0.444 | 0.39 | 1.08 | 0.657 | 0.557 | 0.403 | 1.65 | 1.74 | 1.36 |
| PPTFRYERGSR [INPPL1_Y663_YF] | 0.822 | 0.753 | 0.704 | 0.671 | 0.622 | 0.521 | 0.503 | 0.803 | 0.579 | 0.546 | 0.974 | 0.692 | 0.69 | 0.503 | 0.318 | 0.336 |
| YYLGKYLQEVL [KLB_Y910] | 1.34 | 1.42 | 0.902 | 0.568 | 0.565 | 0.523 | 0.506 | 3.66 | 0.593 | 0.523 | 1.2 | 1.3 | 2.92 | 0.877 | 0.66 | 0.686 |
| HDEPTYARSSK [PEAK1_Y616] | 1.03 | 0.679 | 0.864 | 0.519 | 0.918 | 1.29 | 0.478 | 0.389 | 0.321 | 0.57 | 0.785 | 1.01 | 0.575 | 0.92 | 0.819 | 0.576 |
| QCTSHYPEHVC [SART3_Y541_D540H] | 0.991 | 0.417 | 0.585 | 0.666 | 0.633 | 0.34 | 0.458 | 0.727 | 0.747 | 0.393 | 1.03 | 0.766 | 0.677 | 0.966 | 0.795 | 0.699 |
| QAEEWYFGKMG [YES1_Y159] | 1.13 | 0.439 | 1.05 | 0.773 | 0.847 | 0.787 | 0.498 | 1.17 | 0.48 | 0.603 | 1.28 | 1.44 | 1.07 | 0.942 | 1.09 | 0.359 |
| NFDRIYIFHLR [MYOF_Y1137_V1136I_YF] | 1.42 | 0.524 | 0.993 | 0.605 | 0.507 | 0.724 | 0.732 | 0.594 | 0.705 | 0.606 | 1.53 | 1.46 | 0.791 | 1.59 | 2.07 | 1.15 |
| AFDNLYYWDQD [ERBB2_Y1221] | 2.42 | 7.32 | 0.81 | 6.31 | 5.36 | 5.67 | 5.88 | 9.23 | 4.41 | 3.07 | 2.31 | 1.55 | 9.6 | 0.807 | 0.698 | 0.446 |
| IRRSSYEDSSL [HNF4A_Y144_T139I] | 0.758 | 0.485 | 0.824 | 0.481 | 0.53 | 0.591 | 0.444 | 0.411 | 0.543 | 0.526 | 0.705 | 0.65 | 0.487 | 0.749 | 0.588 | 0.47 |
| EDKSIYRRGAR [PRKCI_Y125] | 0.669 | 0.621 | 0.644 | 0.351 | 0.429 | 0.593 | 0.315 | 0.435 | 0.425 | 0.356 | 0.674 | 0.614 | 0.696 | 0.713 | 0.594 | 0.409 |
| LNLKDYNLVGG [GNAQ_Y356_E355D] | 0.665 | 0.412 | 0.465 | 0.481 | 0.538 | 0.482 | 0.491 | 0.523 | 0.428 | 0.464 | 0.582 | 0.508 | 0.565 | 0.873 | 0.452 | 0.71 |
| PEADKYHLTYA [FGG_Y300_R301H] | 0.985 | 0.742 | 1.15 | 0.608 | 0.701 | 0.915 | 0.51 | 0.665 | 0.592 | 0.282 | 0.685 | 0.908 | 0.771 | 0.561 | 0.704 | 0.655 |
